Data on four compounds can be found in ChEMBL document CHEMBL1148676, “Fluorogenic ester substrates to assess proteolytic activity” (Bioorg Med Chem Lett, 2006).

Calls of active or inactive are those of the source. The calls are words filed in the database; no cut-off is given here.

As a reminder, the Km is the substrate concentration at which the rate is half of its maximum.

Data set [1] has as its target Cathepsin B (Homo sapiens) (UniProt P07858). Put plainly: (§1) Affinity to cathepsin B.
The subject of data set [2] is CC[C@H](NC(=O)OC(C)(C)C)C(=O)Oc1ccc2c(c1)Oc1cc(OC)ccc1C21OC(=O)c2ccccc21. Described as §1. Conditions: Homo sapiens.
The test system of data set [3] is CC[C@H](NC(=O)OCC1c2ccccc2-c2ccccc21)C(=O)Oc1ccc2c(c1)Oc1cc(OC)ccc1C21OC(=O)c2ccccc21. Described as §1. Conditions: Homo sapiens.
For data set [4], the system named is COc1ccc2c(c1)Oc1cc(OC(=O)CNC(=O)OCC3c4ccccc4-c4ccccc43)ccc1C21OC(=O)c2ccccc21. The description is as §1. As to conditions: Homo sapiens.
The subject of data set [5] is COc1ccc2c(c1)Oc1cc(OC(=O)[C@H](C)NC(=O)OC(C)(C)C)ccc1C21OC(=O)c2ccccc21. The description is as §1. Conditions: Homo sapiens.
In data set [6] the test system is COc1ccc2c(c1)Oc1cc(OC(=O)[C@H](C)NC(=O)OCC3c4ccccc4-c4ccccc43)ccc1C21OC(=O)c2ccccc21. The data set is described as §1. Conditions: Homo sapiens.
Data set [7] concerns COc1ccc2c(c1)Oc1cc(OC(=O)[C@H](CC(C)C)NC(=O)OC(C)(C)C)ccc1C21OC(=O)c2ccccc21. The description is as §1. As to conditions: Homo sapiens.

Take `COc1ccc2c(c1)Oc1cc(OC(C)=O)ccc1C21OC(=O)c2ccccc21` (centres undefined): the outcome in data set [1] was inactive.
`COc1ccc2c(c1)Oc1cc(OS(=O)(=O)c3ccc(C)cc3)ccc1C21OC(=O)c2ccccc21` (centres undefined): in data set [1], the result was inactive.
Same read-out and setting: the result for `COc1ccc2c(c1)Oc1cc(OS(=O)(=O)c3ccc([N+](=O)[O-])cc3)ccc1C21OC(=O)c2ccccc21` (centres undefined) reads “inactive”.
On to “Cathepsin B (Homo sapiens) (from UniProt P07858)”, for which the Km in data set [2] is 2.2 µM; in data set [3], 7.2 µM; in data set [4], 7.9 µM; in data set [5] it was 4.5 µM; in data set [6], 7.6 µM; in data set [7], 2.7 µM.
